Publication PMC6147952, “Acylated-acyl carrier protein stabilizes the Pseudomonas aeruginosa WaaP lipopolysaccharide heptose kinase” (Scientific Reports, 2018)

Target: T1, C-terminal hexa-histidine tagged P. aeruginosa WaaP (1–264) (P. aeruginosa, UniProt Q9HUF7 1-264, selenomethionine substituted)
T1 construct: WaaP, lipopolysaccharide core heptose kinase of Pseudomonas aeruginosa (strains derived from PAO1), residues 1-264; A loop (54-72) is disordered in the crystal; also called WaaP-His; LPS heptose kinase WaaP; source: E. coli BL21(DE3)/pLysS, pET21b-waaP, purified (IMAC, Mono-Q, CM-sepharose, Superdex75); not shown: His6, C-terminal, kept
T1 sequence (looked up): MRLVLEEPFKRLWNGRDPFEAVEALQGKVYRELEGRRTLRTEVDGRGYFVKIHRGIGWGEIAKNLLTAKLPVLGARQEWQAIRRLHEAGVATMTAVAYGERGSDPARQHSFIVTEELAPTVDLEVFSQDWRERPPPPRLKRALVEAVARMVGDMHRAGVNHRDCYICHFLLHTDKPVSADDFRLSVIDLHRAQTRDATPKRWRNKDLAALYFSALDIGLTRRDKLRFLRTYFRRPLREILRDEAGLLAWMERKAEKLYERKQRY
Experiment: crystal structure; selenomethionine WaaP-His co-purified with E. coli acyl-ACP; hanging drops at 4 °C, 100 mM HEPES-NaOH pH 7.4, 5% Jeffamine M-600; 2.5 Å
Conditions: both partners purified

B1: E. coli acylated acyl-carrier protein (acyl-ACP) (natural protein, UniProt P0A6A8 1-78, looked up)
chain: MSTIEERVKKIIGEQLGVKQEEVTNNASFVEDLGADSLDTVELVMALEEEFDTEIPDEEAEKITTVQAAIDYINGHQA
modifications: phosphopantetheine on S36 carrying a C16:0 (palmitoyl) or C18:1 acyl chain (palmitoyl modelled in the crystal); selenomethionine
notes: acyl carrier protein of E. coli, 77 amino acids as printed; In the in vitro synthesis experiment (functional row) the ACP was purified E. coli holo-ACP palmitoylated by V. harveyi AasS; Its construct is described only in the Supplementary Information; also called palmitoyl-ACP; source: endogenous, E. coli BL21(DE3)/pLysS, co-purified with WaaP-His
stoichiometry N: 1
